Assay results: the supplement of paper PMC9170038

Columns and labels:
MS2 coat protein [1] = test: apparent KD of MS2 coat protein, switch ON state; designed switch direction (-1 OFF switch, 1 ON switch): -1; higher = weaker reporter binding; details: FMN input: 0 or 200 uM; Eterna round: R93 (includes R88 designs)
Summary of the method: (§1)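 Illumina sequencing clusters were used for on-chip transcription of designed RNA switches. Titration with SNAP-549-labelled MS2 coat protein followed, in twofold steps from 0.7 or 1.5 nM to 3 µM in 100 mM Tris-HCl pH 7.5, 80 mM KCl, 4 mM MgCl2, without or with constant ligand. Apparent KD is each design's median of fits to normalised cluster binding curves.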

MS2 coat protein [2] = test: apparent KD of MS2 coat protein, switch OFF state (with FMN for OFF switches, without FMN for ON switches); designed switch direction (-1 OFF switch, 1 ON switch): -1; higher = weaker reporter binding; details: FMN input: 0 or 200 uM; Eterna round: R93 (includes R88 designs)
Summary of the method: as §1

Sequence | apparent KD of MS2 coat protein (MS2 coat protein [1]) | apparent KD of MS2 coat protein (MS2 coat protein [2])
UGCCGUCUAGGAUAUACAUGAGGAUCACCCAUGUGACACACAUAUUUUACAAAACCAUGUAGAAGGAGACGGCA [E3-2.0] | 99.2 nM | 477 nM
AUGAGAGCAGGAUAUGCAGGUGAGCCGGAAGAAAGAAGAAGACAUGAGGAUCACCCAUGUAGAAGGGCUAGCCC [Madiesxe] | 41.9 nM | 38.7 nM
AAACGUUGAGGAUAUACAAAAGGGUAUAAAUCAAAAAAAACACAUGAGGAUCACCCAUGUAGAAGGCAACGAAA | 128 nM | 65.6 nM
AACAGUACAGGAUAUACAUGAGGAUCACCCAUGUGAGAAUUAAGUGGAAAACCACAAAGUAGAAGGGUACUGGA [Mat - Exclusion 3 - JL mod - D3] | 26.6 nM | 234 nM
AGGAAACAUGAGGAUCACCCAUGUAAGGAUAUGAACGAAAAUAAAUAAAAAUAAAAGUUCAGAAGGUACAAAAA [66%, Wbt, 6] | 29.8 nM | 52.7 nM
AGGAAACAUGAGGAUCACCCAUGUGAGGAUAUAUGAAAGAAAAGAAAAGAAAGAAGAAGUAGAAGGCACAAGAA [Djer] | 27.2 nM | 23.2 nM
AAGAACCUAGGAUAUACUUGGGUAACUAAUAAACUGAUAUAACAUGAGGAUCACCCAUGUAGAAGGAGGAGAAA [JR_Exc002_Sub204] | 50.1 nM | 62.4 nM
AAAGGACGAGGAUAUACAUGAGGAUCACCCAUGUAAAAAACAUAAGAAAAGAAGUUAUGUAGAAGGCGUCCAAA [69%, Moding Meechl, 13] | 16.4 nM | 17.3 nM
AAAAAGGUAGGAUAUACGAGGAGAAAUAAUAAAUAAAUAAAACAUGAGGAUCACCCAUGUAGAAGGACCAAAAA [Ex 2 sub 2] | 27.6 nM | 26.9 nM
AAUAAGUCAGGAUAUGCGAAUAGAAGAUAAGAUACCCAAAAGCAGAAGGGACAUGAGGAUCACCCAUGUAAAUA [JR_Exc004_Sub010] | 31.1 nM | 25.6 nM
AGUUGGCGAGGAUAUACAUGAGGAUCACCCAUGUGAGAGAAAAAAAGGAAAAAAAAAAGUAGAAGGCGCUGACA [Mat - Exclusion 3 - Lego mod - D44] | 43 nM | 69.1 nM
AGUUGGCGAGGAUAUACAUGAGGAUCACCCAUGUGAGAGAAAAAAGUGAGAAAGAAAAGUAGAAGGCGCUGACA [Norbert Elias] | 49.2 nM | 202 nM
UGUGAACAUGAGGAUCACCCAUGUGAGGAUAUACGAGCGUGAGAAAGAUAAAACGAGCGUAGAAGGCACAAGAA [JR_Exclusion1_Sub5] | 43.3 nM | 57.5 nM
UUAGAACAUGAGGAUCACCCAUGUGAGGAUAUGCAAUACUAGCGACAAGAUCAUUAUAGCAGAAGGCACGUAGU [JR_EXc001_Sub806] | 30.1 nM | 40 nM
AGUUGGCGAGGAUAUACAUGAGGAUCACCCAUGUGAGAGAAAAAAAGGAGAAAAAAAAGUAGAAGGCGCUGACA [Ruth Fulton Benedict] | 42.3 nM | 123 nM
AAAACGGUAGGAUAUACGAUUUGGAACUAGACCGAGGAACCACAUGAGGAUCACCCAUGUAGAAGGGCCAAAAA [EX2 Malc#17] | 15.6 nM | 10.7 nM
AAAAAACAUGAGGAUCACCCAUGUGAGGAUAUGCAAAAAUAAAAUAAAAUAAUAAAAAGCAGAAGGCACAAAAA [Amethyst 76] | 20.5 nM | 26.4 nM

Sequence | apparent KD of MS2 coat protein (MS2 coat protein [1]) | apparent KD of MS2 coat protein (MS2 coat protein [2])
AAAGGGUCAGGAUAUCGAUUAAUAAUAAAAUAAAUGAAGAUCGAGAAGGGACAUGAGGAUCACCCAUGUAUAAC [May 79] | 41.8 nM | 64.6 nM
GAAAAGUCAGGAUAUGCAGAUAAAAAAACGAAAAAAAAUCUGCAGAAGGGACAUGAGGAUCACCCAUGUAAAAG [Mat - Exclusion 4 - Mayanna - D110] | 66.3 nM | 54.2 nM
CUCUUGUGAGGAUAUCAAAGAAAAGAAAAGAAAGAAAAGAAUGAGAAGGCACAUGAGGAUCACCCAUGUAAGAA [EteRNA is fun!] | 36.4 nM | 59.5 nM
AAAAAACAUGAGGAUCACCCAUGUGAGGAUAUCGAAAAGUCAAAGAAAAAGACGAAAACGAGAAGGCGCAAAAA [Inspired by Nando] | 23.7 nM | 26 nM
AAGAAGUGAGGAUAUCGAAGACUGUCGAAAAGACAGUCGAACGAGAAGGCACAUGAGGAUCACCCAUGUGAGAG [Mat - Exaclusion 4 - Eli mod - D66] | 31.9 nM | 46.2 nM
AAGGUUGGAGGAUAUACAUAGAUACAGAUACAUGUAGACGUACAUGAGGAUCACCCAUGUAGAAGGCCAAUAUA [Mat - Same state - Mayanna Mod - D146] | 137 nM | 88.6 nM
GAAAAUUGAGGAUAUACGAACAUGUCAAAAGACGUGAAGGGACAUGAGGAUCACCCAUGUAGAAGGCGAAAGAG [Mat - Exclusion 2 - JL mod - D92] | 58.6 nM | 14.1 nM
AGUUGGCGAGGAUAUACAUGAGGAUCACCCAUGUGAAAAAAAAAAGUGAGAAAGAAAAGUAGAAGGCGCUGACA [Mat - Exclusion 3 - Lego mod - D89] | 35.1 nM | 152 nM
UUUACGUGAGGAUAUGCGAAUAGAACGUAAGUCAUACAGACGCAGAAGGCACAUGAGGAUCACCCAUGUGAACC [JR_Exc004_Sub312] | 20 nM | 49.8 nM
CUCAAGUUAGGAUAUCAAAGAAAAGAAGAGAAAGAAAAGAAUGAGAAGGAACAUGAGGAUCACCCAUGUAAGAA [EteRNA is fun!] | 33.4 nM | 22.4 nM
AGCAUGUGAGGAUAUGCGGACUCCAAUAAAUCUGGAGUCCAGUAGAAGGCACAUGAGGAUCACCCAUGUGAUAA [Soenaesma] | 102 nM | 117 nM
CUCAUGUGAGGAUAUCAGUAGUAAAAAAAUAAAAUUACUACUGAGAAGGCACAUGAGGAUCACCCAUGUGAAAA [EX4 339: Super Stable 39] | 27.4 nM | 16.1 nM
AACAUGUGAGGAUAUAUAAGAAAAGAAAAGAAAGAAAAGAAAUAGAAGGCACAUGAGGAUCACCCAUGUAAGAA [EteRNA is fun!] | 30 nM | 26.2 nM
GAUUAGGUAGGAUAUACAUGAGGAUCACCCAUGUAGGAAAAAAGCUACGAAAAAGAAUGUAGAAGGACCUAAAG [Mat - Exclusion 3 - Mayanna mod - D105] | 20.5 nM | 22.9 nM
GUGUACAGAGGAUAUAUAUAAGCAUGGAAACAUGCAAGAUCACAUGAGGAUCACCCAUGUAGAAGGCUGUACAC [Ex2: 737] | 23.3 nM | 73.7 nM
AAAAAGGUAGGAUAUACGAAAAAAAAGGGUAAAAUAAAUAAACAUGAGGAUCACCCAUGUAGAAGGACCAAAAA [Mat - Exclusion 2 - Tesla mod - D38] | 23.5 nM | 161 nM
AAAAGUUCAGGAUAUACAUGAGGAUCACCCAUGUAGAAAGGAAGUGUAAAAAAAAAGUGUAGAAGGGAGCAUGA [MS2 Riboswitches On Chip Exclusion 3 wbt2] | 22.2 nM | 21.8 nM
